Data: the domain aggregation screens of Martell et al. (2025)

Test: soluble fraction after stress (log2 fold change); higher = more stays soluble; pooled small domains, quantitative proteomics
Settings: stress: 75 degC
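Further: 20 min heating vs room temperature control held 20 min.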

Sequence | soluble fraction (log2)
HMSEQLKQIAERIKELRNIAGLGEEELAAKLDIPVDTYREYESGNVDIPVSFLYKISGMFNVELTAIL | -1.1
HMSEQLVGTVGHITVGTARTASPAEAKFLDAFEQPHYLLVEPIEPKDIFQQGDKVVLVKKQHHSWLATRYI | -1.2
HMSEQTLEDVRRLIEHLPESQKEVVKMRYYQDLSFKEIADLKGISINTALGRMHYAINNMRKMAKEYGL | -1.94
HMSEQVQLQAQVEDDLIGKRLDQVVAQLFPDYSRSRLQGWIKDGSLTVDGESRRPRDKMMGGEVVRVEATL | 0.107
HMSEQVTMIDVEGKTETEAKKALEDLGLKVEITYESADAAAGTVIGQDVKAGSTVSEGSRVTLTVSGQ | 0.528
HMSERQTGTVKWFNNAKGFGFITMADRPDDIFVHFRAIQGDGYRSLNEGEEVEFSLVEGPKGLQAEEVTK | -0.0682
HMSESAGKAFDLLFYLAKAGETVSLARLSRETGMNKATALRYLNVLESKGVVERSKLGWTLGLSLFELGSK | -2.96
HMSESIFTLYGDEKFEKIRYYLKERGFITLDALARFDFDELLFVPGVSELLISEAKQLFSRYDTSSLAAKE | -0.584
HMSETAEFIIQVNGKVRAKLQLPTDISKEEIQKLALADENVQKYLNGEPRKIIFPPNTRLVSIV | -0.315
HMSETEEWTVEGGQAGDRIDRHVAAMLGDDVSRSQVQQWIRAGRVTVNGRAVKPSDTVEEGDRVAVDLPEP | -0.189
HMSETVYQYVARQLRDMLGSGEIPVGQQLPTYRELAKRFQVSLSVIQRAMRQLKAEAVVSIAHGQGVKAVR | -1.16
HMSEVPVLVAKTDIKELELIDDRKVTLINVPQKFKMPGSFNSPEEVYNTIAAVPIKEGEQITKPRVTWP | 0.0951
HMSEVSEILTRARFFAGVKTDAELSTLLKIPYGTLIGWKTRKNIPESRIAQMALILGIRRDTLIPA | -1.86
HMSEYIFGKNVVKEAFNNPSRIEEIYVLDKNMEFVSLAKKYHIKYTVITSSEMNKMVSGNHQGVVALVK | -2.1
HMSFDENEALRKALDVFWEKGYDGTSLSDLTEAMGINKPSLYATFGNKDQLFLKAIEMYENR | -1.4
HMSFDTFKKVFSNLVEKSGYSDAEIARRLGVNRSTISRWKSGEQSPPLPKVKEIANFFGVSPMVFVD | -0.41
HMSFFNGNQMKILRKKLQLNQEEMGEKLGIKKSYVSQLENNRKEITEEIDQILQELEQEYQDKM | -0.642
HMSFGESLKKLSIALNSIRKLATTDAGKKDPKVADLLGQIRDTFNSYRTHLRKNYPDLYSGIKNQL | -0.977
HMSFGKKLRSLRQEKKLSQVELSKKLNVTSQALSQYELGKRIPDAEMIIRIADFFDVSVDYLLDRT | -1.69
HMSFGWESLENKEGVADTDLHPSGWVRIEDSRIFVVSEGDFINKGSKVTVLTVDGNRVVVRELI | -2.1
HMSFNISPTKKLILELIMNGTAAVEAIAVKAGISKGMAYNHLRELRSMGYITDEGGYKITDSGRLAV | -2.39
HMSFNNHYEILQVQPSADREVIEAAAKALLKKHHPDLGGRNTITSHIVQAKKVLTDTSQRADFDARLRERL | -0.135
HMSFNSQENKSVLWQFLLENNFFIGLSDKKFNKVKDIFEKNIQSISIVNDSISNKNKILIQKMMEELELL | -3.38
HMSFPDTYFKGNKVIGLSYNDLKKFLNNAGYSKFDEEVEEWGEKRVSIEDDMVDFYLEDDKVVSI | -0.361
HMSFPFLMPNLEGLQLDQVRVILEENGLEIGQENYQPDSKFGPGTIINHQPSVDTVVQTGQKVNLQISGTD | 0.126
HMSFSSLSNDILSEIQKDNNITYDELSEKLQKDRATIYRNMKKLVENGLLKRVGGRKSGHWEIIE | -0.102

Sequence | soluble fraction (log2)
HMSFVDFYGLFTTELQRLAELPVTADELIKNTGLHKSQLTDWLKRAEEDGVVKKLNRPVRYQVEKK | -1.66
HMSGAQIQQLLESRAPQPGMNPDMIVRRKTYMNNVFNALKGALLRVANGSSPEEVKTEVDAAIQVDPDKL | 0.353
HMSGEVLTAVVPETASGERLDKVLPQIFPPYSRSQLQTWLKEGRVTLDREIPAARLAVIGGETLRLEVPSL | -0.112
HMSGFFVYPNPAKSNIIHFPNKKSFYIYDTSGRLLIEGKGKDFIDVSTLDRGVYLLKTFENDIVKIII | -1.1
HMSGGIVRLAVKPWGEVFVDGASRGITPPLKQLTLDAGVHRIEIRNPAGPSWTKDVDVVAGQPTTVSHRF | -0.494
HMSGITDIITDGKATSRPVVVTDGGHIRVLSPYTSFAIYTLGGMSLPTESRLEPGIYIVVVDSNAVKVAV | -1.59
HMSGLGELTPRELEVLELMAQGLSNSQIAGRLFLSGAAVAKHVSSIFSKLGFEPGDENRRVRAILAFLNR | -1.41
HMSGLLTTSKLAQKHKMKTEPMLEKLTAAGYLEWRDDKHSLTEQGKKAGGQFKTGRFGAYFLWPEDLV | -0.116
HMSGPDGLTEREIEVLRLLASGLSNRAIGERLYISTNTAANHVRSILLKTGAANRTQAAMYAADHEML | -1.66
HMSGPFTELTPREREILSHLAEGQSNKVIARHLQISDGTVKLHVKAILRKLEVHSRVEAAVMAVEHGV | -2.18
HMSGPMVPNVVGLSEEMARALLSDYSITIKHAHDGVIPKDRVASQLPLATTHAKVGSSVVLTIS | -0.557
HMSGQLTEEQVKQIVTTAVKNSSGSTLTAAEVSRIVSTAVANNLTADQVKTVVNNALAGITTDISTLKA | 0.124
HMSGSFDVTLDYLNSLRNLYPAIDVEQEFRKMYAWLDSNPKNRKTERGIKRFITGWLGRAQDKAP | -1.31
HMSGSLLQTRQRLQALTDLGHYKGDLAAAWGPEAIEALKRAQAALGITVDGKWGPETEDAIQVALQAQT | -0.00363
HMSGSPREQAESEYRKAIAAVNQGRVSEATESLRAALRLDAFQVAARQLLVKLLLEAKNQDEAIQVLR | -0.986
HMSGTMYATAEVNVRSTYSSDGTIYGTLSKGTAVEITGTTDNGWVRVKYNGTTAYVYADYLSWKAP | -2.41
HMSGYAIVNNQPGRTLNLRNSPSQSNNIIGQIPSGTRLQLISRGETWSEVIFQTTRGFVMSSFLRFET | -2.38
HMSHGNAALTPRQRLRLARLVVDDQWSVSAAAEFFRVSYPTAAKWARRYVELGPAGMADRSS | -1.62
HMSHRVGDVVELTAVRMNDQGVFLDAGTGNTSDDILLHKHQMTSPVSVGDKVKVQLYLDAKNRITASMKL | -0.36
HMSIEIIEITSNSSPKNLSEIIDIDATQIVADLMGLGIMKAIDTPLENSEIEQLLEKYNLIAEFVE | -2.76
HMSILEIFGRNVQKYRKEQRLSQEKLAEYAGLHRTYIGMIERAEKNITLVNIEKIAKALNINLTKLLE | -4.25
HMSILTELDIGDKVEVVAGPFKGIQANITRIEPVRKEVTVILLDAPYQLPVTVDADYLKIIQKS | -1.63
HMSINISFEPADHLGKDVIFIRFPYDNEWIQRVRKLKGAKWSQSQRAWHVPDTEHYRTLFQLPQKI | -2.73
HMSIQDLMNSKDLSGFKVEMLSNEDIVKYKSMLQSSGFSESQAEQLALQRGLPTSELIKLRTRISDVAVT | 0.199
HMSIQELMNSKDLSSFKVEMLSDEDIAKYKGLLQNSGLTEAQAEQMALQRGLPSSELLKLKARLSGI | 0.118
HMSIQREIILEVIKNNRTHPTAEEIYILVTKKEPKISRSTVYRNINILVEKGIIEKITIATGPDRYDY | -1.53

Sequence | soluble fraction (log2)
HMSISDEDFAKLLDFVKEKWDAGELDNAEDIKAAISEGEKEFGVSLDESTRTTLASALQQLN | 0.274
HMSIYDAPIEDLKFSTRIFNSLKRADIHTVADLIAHSRDDLMKVRNLGATSLDELIEKLGTHGLQLADP | -0.412
HMSIYYQIYESLKKDLSNNLYKPGEKLPSENVLSKRFGVNRHTIRRSLQLLKNEGILFSKRGSGIIVHD | -3.45
HMSKDKEKRTREHVLGILKKYDKVMTDKAFTVFKKMIKDESILEMELIKLINFIGERKEIRSKDVLAVVTE | -0.504
HMSKEIQNILASLPSVDVLLKQIDPIYPHGKAKEATQQVVARLRESVVDGTRKTVIDQKEVIAMIHKQLEE | -0.293
HMSKETTYEVLSLKGDEWQTDTIYSDRDEAIEAARNLHGDPHIDGAKVISEVYDDKTGGSKETTIFNT | 0.535
HMSKHAIQNELEKIEGIGKQTADSLLKEFKSVKKLRTLPLSEIEKVIGKSKATIVFEALHKDK | 0.00931
HMSKHATLLEALADLSVKLKPHSQLPSERALSEEYGVSRMTLRRAIDVLQARGYIYSVPSKGLFVSEP | -1.89
HMSKHATLLEALAELTVKLKPHTQLPSERQLSEDFGVSRMTLRRAIDVMQSRGYIYTVPSKGLYVSEP | -1.72
HMSKIRTFRVKTVAVDQAYQVLKDYSPIKISTESNAVIIDLDESKTPAEIAGYLEKNGIKVDNIEVIAESE | 0.962
HMSKISKENEQQVIQIVQTLLLNVQDKSLITTQILNEKINLAVSLDTKYKENLDRDYIIEELIRRYSVW | -2.93
HMSKKIVLPAAITVKKFSETLDMPLGTVISELMKNGILATINERIDFETASIIAQDLGYEVSEEV | -0.216
HMSKKQEQALQSREKLLDAATALFAEHGYRDTSVQAIGEKAGVSRGSIFWHFGSKEGLLWAVVERAFTA | 0.303
HMSKKTQKDEVVDLFLKTGNEPLHYKEISKKTGIIVHNVRRITGQNVVGKTDNPVFKRVSPGVYKLID | -0.72
HMSKLSVSSLSSPEVQNQLKAAGIDVNSRQYQVVMKDMMGALDGRAGYTTVSAIKNRMRQYNADGDY | 0.687
HMSKMVEMSQEKSREKVARVKIEIQKMLDRKERVTVSGLERATGFSNSFFYRNEEVNQAVKEAQLKQ | -0.138
HMSKNIRQQFLDVLPKTFDRNQYLETAKKLSINAKTAEGYIKKFVEANLLDHPKHNHYINLKKVEEVETK | -0.0919
HMSKNYYEILGVTPDVELSQLKAVYRRLVRKYHPDINPDGELIFKDITEAYEVLSDEKQRKQYDMINGF | -0.596
HMSKPILSFVDPEKDPSHYVKRYITEETYKDWFSEHFPDYTLYEGIGITQEEYRNIVNELTKP | -0.5
HMSKPIYSELLREIRSGDVKELTLIPQRREVLVEYSDGRKATVSILANDQQVLRTAESAGVPLTVK | -0.0278
HMSKPVFQTHSVRSADSATVFDVLQTLLAGTPDARIAIDPKTNAIVAWARPETQEVIAKSIMEMEG | 0.0746
HMSKQIEVPDVTDMTVSDAIDVLQDKGFVVSDEQKEVASSEIEEGRVVRTSPAVGSKRKDGTVVTLYVSI | 0.353
HMSKTEEIAYTTFVKYLENKDIEEVYLGNNAKIKVILKDGREMITDNPRTADFKKDLLLHDIKVVEKT | -0.0889
HMSKYGIAYSEVLEILKHIPIEDYNKIPRNEIELFETYADKDFTFNYDSSKTLEEQNVSNITKGIIIL | -0.56
